# Laboratory results published in patent publication US9228015B2, “Nogo receptor antagonists and methods of increasing neurite outgrowth” (Biogen Idec MA Inc., priority 2006, dated 2016).
# Columns and labels:
# [1] = test system: rats with dorsal hemisection (CST transection); assay: Functional recovery after spinal cord transection in rats (BBB, stride length; Example 30); type: in vivo, rat
# Method: Briefly, female Long Evans rats (7 weels old; Charles River, Wilmington, Mass., USA) were anesthetized using 25 mg/kg midazolam i.p. (Abott Laboratories, Chicago, Ill., USA) and 2-3% fluothane (Baxter, Deerfield, Ill., USA) in O2 and a dorsal laminectomy performed at spinal level T6 and T7. General anesthesia wa maintained at 1.5-2% fluothane in O2 A dorsal hemisection was performed completely interrupting the main dorsomedial and the mino dorsplateral corticospinal tract (CST) components. A microscapel was used to sterotaxically transect the cord at a depth of 1.8 mm from the surface of the cord. Immediately after CST transection, an intrathecal catheter was inserted into the subarachnoid space at T7 and connected to a primed mini-osmotic pump inserted into the subcutaneous space. […] Functional recovery was assessed using the BBB openfield scoring method (Basso et al., J. Neurotrauma 12:1-21 (1995)) the following day and weekly thereafter.
# A discriminating point on the BBB score is a score of 14, corresponding to consistent weight supported planter steps and consistent hindlimb-forelimb coordination.
# [2] = test system: rats with CST transection; assay: BDA-labeled axon counts caudal to spinal cord transection in rats (Example 31); type: in vivo, rat; conditions: 15 mm caudal to the injury site
# Method: Treatment with NgR(310)ecto-Fc or combined treatment with MP and NgR(310)ecto-Fc enhanced axonal plasticity/regeneration after spinal cord transection. Briefly, for histological tracing of the CSTs, 2 weeks after CST transection animals were re-anesthetized and an incision made in the scalp. The area around the skin incision was injected with a local anesthetic, the left sensorimotor cortex exposed via a craniotomy and 7 μL 10% biotin dextran amine (BDA; 10,000 MW; Molecular Probes, Eugene, Oreg., USA) in PBS injected using a nanoliter injector and micro4 controller at 12 points 0-3.5 mm posterior to Bregma and […] lateral to the midline at a depth of 1 mm below the surface of the cortex. In some instances, the CST was labeled bilaterally using the same procedure.
# At 28 days after CST transection, the rats were anesthetized with inactin (100-110 mg/kg i.p.) and transcardially perfused with heparinized saline (100 ml, 10 iu heparin) followed by 4% paraformaldehyde (150 ml). […]
# Frozen sections (50 μm) were serially cut and stained with strepavidin-conjugated AlexaFluor-594 (1:200; Molecular Probes) to visualize labeled CST axons. […] Every eighth section, i.e., sections 400 μm apart, was counted for each animal at each level of the cord and the values were expressed as mean number of axons per section.
# [3] = test system: chick dorsal root ganglion neurons, myelin-induced neurite outgrowth inhibition; assay: Neurite outgrowth of embryonic day 13 chick DRG neurons on myelin (Example 29); type: cell-based; conditions: 8 μM NgR(310)ecto-Fc; MP 10 μg/nl as printed
# Method: In investigating combined treatment with methyprednisolone (MP) and NgR(310)ecto-Fc for spinal cord injury (SCI), we sought to verify that these reagents have independent mechanisms of action. Briefly, myelin was dried overnight in poly-L-lysine-precoated plates (Becton Dickinson, Bedford, Mass., USA) at 80 or 400 ng/well (2.5 and 12.7 ng/mm^2, respectively). Wells were then coated with 10 µg/ml laminin (Calbiochem, La Jolla, Calif., USA) for 1 hour at foom temperature (22-24 C). Embryonic day 13 chick dorsal root ganglion neurons were dissociated and plated for 6-8 hours as previously described (GrandPre et al., 2000; Fournier et al., 2001). Neurons were treated with 8 μM NgR(310)ecto-Fc in the presence or absence of 10 μg/nl MP (Pharmacia, Kalamazoo, Mich., USA) for the entire outgrowth period. Neurons were then fixed and stained with βIII tubulin antibody (Covance, Princeton, N.J., USA) and neurite outgrowth was quantified using an automated cellular imaging and analysis system (Axon Instrument, Union City, Calif.; USA). Neurite outgrowth per cell was normalized to the average of duplicate control wells for each experiment (n=3). […] These in vitro data support the hypothesis that MP and NgR(310)ecto-Fc will enhance SCI recovery in a sequentially effective manner.
molecule,measurement,setting,value
"NgR(310)ecto-Fc: ectodomain of the rat NgR1 (27-310) fused to a rat IgG (protein, left off: a dimerising Fc or GST, ectodomain of the rat NgR1 (27-310) fused to a rat IgG) PCPGACVCYNEPKVTTSRPQQGLQAVPAGIPASSQRIFLHGNRISYVPAASFQSCRNLTILWLHSNALAGIDAAAFTGLTLLEQLDLSDNAQLRVVDPTTFRGLGHLHTLHLDRCGLQELGPGLFRGLAALQYLYLQDNNLQALPDNTFRDLGNLTHLFLHGNRIPSVPEHAFRGLHSLDRLLLHQNHVARVHPHAFRDLGRLMTLYLFANNLSMLPAEVLVPLRSLQYLRLNDNPWVCDCRARPLWAWLQKFRGSSSGVPSNLPQRLAGRDLKRLATSDLEGCA",BBB scores normalized to day 2,"[1]; 2, 3 and 4 weeks after SCI",significant improvement
same,mean stride length vs controls,[1]; 4 weeks after SCI,significantly improved
same,Mean BBB score,[1]; after 4 weeks,14.8±0.24
same,frequency of rats with BBB score of 14 or greater (consistent plantar stepping and coordinated movement),[1]; by 4 weeks,100%
same,number of BDA-labeled axons,[2],significantly greater numbers
same,effect on neurite outgrowth on a myelin substrate,[3],reverse the inhibition
